The results in this text go back to patent publication US20020037514A1, “Identification of nuclear receptor-dependent coregulator recruitment” (priority 2000, published 2002).

The test has as its target T1, RARα-V5/RXRγ/DR-5 ternary complex (Homo sapiens, UniProt P10276).
T1 construct: the nuclear receptor subunits used in the invention are full length nuclear receptor monomer subunits; expressed in transfected cells; host or cells: CV-1 (green monkey kidney), whole-cell lysate
T1 sequence (P10276 1-462): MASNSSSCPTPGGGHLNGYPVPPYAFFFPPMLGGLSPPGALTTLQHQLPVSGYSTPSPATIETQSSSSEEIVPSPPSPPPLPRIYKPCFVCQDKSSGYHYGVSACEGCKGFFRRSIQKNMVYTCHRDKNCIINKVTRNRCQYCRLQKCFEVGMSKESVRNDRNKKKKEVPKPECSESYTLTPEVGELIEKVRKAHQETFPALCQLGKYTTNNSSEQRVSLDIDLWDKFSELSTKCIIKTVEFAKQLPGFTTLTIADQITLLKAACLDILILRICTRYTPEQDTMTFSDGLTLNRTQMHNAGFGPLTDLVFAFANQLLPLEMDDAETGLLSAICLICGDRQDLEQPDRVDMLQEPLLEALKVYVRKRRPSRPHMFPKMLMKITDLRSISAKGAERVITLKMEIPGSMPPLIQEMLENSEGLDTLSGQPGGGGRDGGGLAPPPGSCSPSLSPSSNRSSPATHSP
T1 sequence (P28705 1-463 partner): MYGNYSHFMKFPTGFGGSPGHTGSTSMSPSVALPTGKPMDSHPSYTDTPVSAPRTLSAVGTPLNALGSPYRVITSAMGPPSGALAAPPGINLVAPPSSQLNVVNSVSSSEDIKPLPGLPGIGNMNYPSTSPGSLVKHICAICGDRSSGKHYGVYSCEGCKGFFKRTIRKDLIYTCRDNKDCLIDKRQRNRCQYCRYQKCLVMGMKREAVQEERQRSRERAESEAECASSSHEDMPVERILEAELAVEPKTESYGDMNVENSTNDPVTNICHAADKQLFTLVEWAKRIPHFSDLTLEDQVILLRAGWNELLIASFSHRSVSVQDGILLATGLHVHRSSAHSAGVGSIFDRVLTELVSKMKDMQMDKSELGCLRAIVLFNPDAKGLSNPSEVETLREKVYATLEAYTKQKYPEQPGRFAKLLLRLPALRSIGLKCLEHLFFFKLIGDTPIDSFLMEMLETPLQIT
Kind of test: LXD peptide competition of ATRA-induced co-activator recruitment (Example 7, FIG. 8A). Type of test: biochemical. The conditions noted are these: SRC-1 peptides at 40 μl (so in the source), DR-5 RARE. An excerpt:
Nolte, R. T. et al., Nature 395:137-143 (1998). We addressed the importance of each of the three LXDs in mediating co-activator-receptor interaction using synthetic peptides comprising the LXD1, LXD2 or LXD3 amino acid sequences as competitors with SRC-1 in the DNA modified immunoprecipitation methods of the present invention. These peptides have the following amino acid sequences (with the characteristic LXXLL motif shown in bold):
Transfection, DR-5 oligonucleotide treatment, ligand treatment, immunoprecipitation and detection of associated co-factors were performed essentially as shown in the previous Examples. CV-1 cells were transfected with plasmids expressing either RARα/RXRγ-V5 or with RARγ/RXRα-V5. Synthetic LXD peptides were added to the cell lysate before the addition of retinoids at a concentration of 20 (ACTR) and 40 (SRC-1) […].

“SLTERHKILHRLLQEGSPSDIT (Nuclear co-activator LXD-containing peptide) [SRC-1 LXD2]”: the “effect of peptide on ATRA-induced recruitment of SRC-1” value was “completely abolished”.
